target: T1, human PD-1 fusion protein (human, UniProt Q15116 25-170); assay: purified scFv titrated; inhibition of biotinylated human PD-L1 fusion binding to plate-bound human PD-1 fusion
T1 construct: also called Soluble PD-1 fusion protein; human PD-1/IgG chimera; not shown: fusion partner (IgG part of the chimera)
Procedure: ScFv production was induced by addition of 1 mM IPTG to exponentially growing cultures and incubation overnight at 30° C. Crude scFv-containing periplasmic extracts were obtained by subjecting the bacterial pellets from the overnight induction to osmotic shock. Pellets were resuspended in 20% (w/v) sucrose, 50 mM Tris-HCl, pH 7.5, 1 mM EDTA and cooled on ice for 30 minutes. Cellular debris was removed by centrifugation, and the scFv was purified by chromatography and buffer-exchanged into PBS. Purified scFv's (PD1-17, PD1-28, PD1-33, and PD1-35) were tested for the ability to inhibit the binding of biotinylated human PD-L1 fusion protein to human PD-1 fusion protein immobilized on plastic in a 96 well microtiter plate assay. Binding of biotinylated PD-L1 fusion protein was detected with AMDEX-alkaline phosphatase, and the signal generated was measured by reading the absorbance at 405 nm using a microtiter plate reader. Data was expressed as a percentage of the total binding and a titration of scFv concentrations was tested to establish clone potency as calculated IC₅₀ values.

T1 sequence (Q15116 other isoform, or with tags, fused parts or gaps): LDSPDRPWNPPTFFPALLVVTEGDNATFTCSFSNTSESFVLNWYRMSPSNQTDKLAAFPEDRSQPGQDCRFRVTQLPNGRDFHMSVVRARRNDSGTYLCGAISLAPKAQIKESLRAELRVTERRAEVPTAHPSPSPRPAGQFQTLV

| Binder | IC50 [nM] |
| --- | --- |
| PD1-28 scFv (scFv, V domains shown, not shown: scFv linker and domain order) VH: EVQLVQSGAEVKKPGASVKVSCKASGYRFTSYGISWVRQAPGQGLEWMGWISAYNGNTNYAQKLQGRVTMTTDTSTNTAYMELRSLRSDDTAVYYCARDADYSSGSGYWGQGTLVTVSS VL: SYELTQPPSVSVSPGQTARITCSGDALPKQYAYWYQQKPGQAPVMVIYKDTERPSGIPERFSGSSSGTKVTLTISGVQAEDEADYYCQSADNSITYRVFGGGTKVTVL | 560 |
| PD1-17 scFv (scFv, V domains shown, not shown: scFv linker and domain order) VH: QVQLQESGPGVVKPSGTLSLTCAISGGSIGSGGSIRSTRWWSWVRQSPGKGLEWIGEIYHSGSTNYNPSLKSRVTISLDKSRNHFSLRLNSVTAADTAVYYCARQDYGDSGDWYFDLWGKGTMVTVSS VL: NFMLTQPHSVSESPGKTVTISCTRSSGSIASNSVQWYQQRPGSSPTTVIYEDNQRPSGVPDRFSGSIDSSSNSASLTVSGLKTEDEADYYCQSSDSSAVVFGSGTKLTVL | 726 |

target: T1, human PD-1 fusion protein; assay: IgG titrated; inhibition of biotinylated human PD-L1 fusion binding to plate-bound human PD-1 fusion

| Binder | IC50 [nM] |
| --- | --- |
| PD1-28 IgG (antibody, V domains shown) VH: EVQLVQSGAEVKKPGASVKVSCKASGYRFTSYGISWVRQAPGQGLEWMGWISAYNGNTNYAQKLQGRVTMTTDTSTNTAYMELRSLRSDDTAVYYCARDADYSSGSGYWGQGTLVTVSS VL: SYELTQPPSVSVSPGQTARITCSGDALPKQYAYWYQQKPGQAPVMVIYKDTERPSGIPERFSGSSSGTKVTLTISGVQAEDEADYYCQSADNSITYRVFGGGTKVTVL | 1.4 |
| PD1-33 IgG (antibody, V domains shown) VH: QVQLVQSGAEVKKPGASVRVSCKASGYTLTSYYIHWVRQAPGQGLEWMGIINPRGATISYAQKFQGRVTMTRDTSTSTVYMELRNLKSEDTALYYCATAGIYGFDFDYWGRGTLVTVSS VL: QSALTQPASVSGSPGQSITISCTGTSNDVGGYNYVSWYQHHPGKAPKLIIYDVTNRPSGVSDRFSGSKSGNTASLTISGLLAEDEGDYYCSSYTIVTNFEVLFGGGTKLTV | 1.8 |
| PD1-17 IgG (antibody, V domains shown, also called anti-PD-1 antibody PD1-17) VH: QVQLQESGPGVVKPSGTLSLTCAISGGSIGSGGSIRSTRWWSWVRQSPGKGLEWIGEIYHSGSTNYNPSLKSRVTISLDKSRNHFSLRLNSVTAADTAVYYCARQDYGDSGDWYFDLWGKGTMVTVSS VL: NFMLTQPHSVSESPGKTVTISCTRSSGSIASNSVQWYQQRPGSSPTTVIYEDNQRPSGVPDRFSGSIDSSSNSASLTVSGLKTEDEADYYCQSSDSSAVVFGSGTKLTVL | 2.5 |
| PD1-35 IgG (antibody, V domains shown, also called PD-35) VH: QVQLQESGPGLVKPSQTLSLTCTVSGGSISSGAYYWSWIRQHPGKGLEWIGYIYYNGNTYYNPSLRSLVTISVDASKNQFSLKLSSVTAADTAVYYCARASDYVWGGYRYMDAFDIWGRGTLITVSS VL: not shown | 2.3 |

Source: patent US20060210567A1 (AstraZeneca / MedImmune, published 2006)
